Results reported in US20220016183A1, “EXOSOME AND VARIOUS USES THEREOF” (PROSTEMICS CO., LTD., priority 2018, published 2022).

How the values were obtained:
human fibroblasts (HDF) = experiment: Skin fibroblast (HDF) proliferation; format: cell-based; conditions: 500 ng/ml, 48 hours, DMEM 1% FBS
Method: (§1) After 48 hours, a change in cell viability was measured, and results thereof are shown in Tables 8 and 9 below and FIGS. 9 and 10.

[1] = tested on: adipose-derived stem cells (ASC); experiment: Adipose-derived stem cell (ASC) proliferation, CCK-8; format: cell-based; conditions: positive control of Table 10 (FBS, 10 wt. % in medium), 24 hours
Method: Adipocytes derived stem cells (ADCs) were cultured in DMEM medium (Invitrogen) containing 10% fetal calf serum and 1% penicillin/streptomycin at 37° C. and 5% CO2 conditions, and the medium was changed every 3 days. After culturing for 24 hours, the cells were treated under the conditions shown in Table 10 below, and further cultured for 24 hours. After removing the treated material from each cell and dispensing the CCK-8 solution thereto, the cells were incubated at 37° C. in a CO2 incubator for 2 hours, and absorbance was measured at 450 nm.

keratinocytes (HaCaT) = experiment: Keratinocyte (HaCaT) proliferation; format: cell-based, human; conditions: 500 ng/ml, 48 hours, DMEM 1% FBS
Method: as §1

B1: E1: EGF, positive control at 500 ng/ml (protein, UniProt P01133 23-1207, looked up)
Pro-epidermal growth factor: PQHWSCPEGTLAGNGNSTCVGPAPFLIFSHGNSIFRIDTEGTNYEQLVVDAGVSVIMDFHYNEKRIYWVDLERQLLQRVFLNGSRQERVCNIEKNVSGMAINWINEEVIWSNQQEGIITVTDMKGNNSHILLSALKYPANVAVDPVERFIFWSSEVAGSLYRADLDGVGVKALLETSEKITAVSLDVLDKRLFWIQYNREGSNSLICSCDYDGGSVHISKHPTQHNLFAMSLFGDRIFYSTWKMKTIWIANKHTGKDMVRINLHSSFVPLGELKVVHPLAQPKAEDDTWEPEQKLCKLRKGNCSSTVCGQDLQSHLCMCAEGYALSRDRKYCEDVNECAFWNHGCTLGCKNTPGSYYCTCPVGFVLLPDGKRCHQLVSCPRNVSECSHDCVLTSEGPLCFCPEGSVLERDGKTCSGCSSPDNGGCSQLCVPLSPVSWECDCFPGYDLQLDEKSCAASGPQPFLLFANSQDIRHMHFDGTDYGTLLSQQMGMVYALDHDPVENKIYFAHTALKWIERANMDGSQRERLIEEGVDVPEGLAVDWIGRRFYWTDRGKSLIGRSDLNGKRSKIITKENISQPRGIAVHPMAKRLFWTDTGINPRIESSSLQGLGRLVIASSDLIWPSGITIDFLTDKLYWCDAKQSVIEMANLDGSKRRRLTQNDVGHPFAVAVFEDYVWFSDWAMPSVMRVNKRTGKDRVRLQGSMLKPSSLVVVHPLAKPGADPCLYQNGGCEHICKKRLGTAWCSCREGFMKASDGKTCLALDGHQLLAGGEVDLKNQVTPLDILSKTRVSEDNITESQHMLVAEIMVSDQDDCAPVGCSMYARCISEGEDATCQCLKGFAGDGKLCSDIDECEMGVPVCPPASSKCINTEGGYVCRCSEGYQGDGIHCLDIDECQLGEHSCGENASCTNTEGGYTCMCAGRLSEPGLICPDSTPPPHLREDDHHYSVRNSDSECPLSHDGYCLHDGVCMYIEALDKYACNCVVGYIGERCQYRDLKWWELRHAGHGQQQKVIVVAVCVVVLVMLLLLSLWGAHYYRTQKLLSKNPKNPYEESSRDVRSRRPADTEDGMSSCPQPWFVVIKEHQDLKNGGQPVAGEDGQAADGSMQPTSWRQEPQLCGMGTEQGCWIPVSSDKGSCPQVMERSFHMPSYGTQTLEGGVEKPHSLLSANPLWQQRALDPPHQMELTQ
modifications: Pro-epidermal growth factor
notes: EGF, positive control at 500 ng/ml
Question: What does the source list for B1?
Answer: HDF proliferation rate (%) (human fibroblasts (HDF)): 143.04%; ASC proliferation rate (%) [1]: 186.10%; HaCaT proliferation rate (%) (keratinocytes (HaCaT)): 160.38%
